Data as given in the nanobody polyreactivity screen of Harvey et al. (2022).

Experiment: yeast display, Sf9 membrane polyspecificity reagent, FACS + sequencing; frameworks hold sequencing errors
Outline: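 Using colony PCR, genes from sorted yeast display clones were amplified, then sequenced on MiSeq at 2 × 250 and filtered by CDR length. The clones had been stained with 10% biotinylated, detergent-solubilized Sf9 membrane reagent for 1 hour at 4 °C and sorted by FACS into low and high (top ~1%) gates on anti-HA and streptavidin fluorescence. Polyreactivity labels come from the gate of origin.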

Sequence	polyreactivity (PSR sort gate)
QVQLVESGGGLVQAGGSLSLSCAASGFTLGYYAMGWYRQAPGKERELVAAITSGGGTNYADSVKGRFTISRDNAKNTVYLQMNSLKPEDTAVYYCAARARWIYGMYSWGQGTQVTVSS	low polyreactivity
QVQLVESGGGLVQAGGSLSLSCAASGGIFAANAMGWYRQAPGKERELVAAITRRGGSTTYADSVKGRFTISRDNAKNTVYLQMNRLKREDTAVYYCNTVYYRFYIELYFSSYDYWGQGTQVTVSS	high polyreactivity
QVQLVESGGGLVQAGGSLSLSCAASGITFGLYTLGWYRQAPGKERELVASISQSGGSTYYADSVKGRFTNSRDNAKNTVYLQMNSQKQEDTAVYYCNARRRFWDFSTRGYDSWGQGTQGTVSS	high polyreactivity
QVQLVESGGGLVQAGGSLSLSCAASGLTFKWNAMGWYRQAPGKEREFVAANTKRAGSTYYADSVKGRFTISRDNAKNTVYIQMNSLKPEDTAVYYCAADDGYFYARYDYWGQGTQVTVSS	low polyreactivity
QVQLVESGGGLVQAGGSLSLSCAASGLTFQEYAMRWYRQAPGKERELVAAISWSGGSTYYADSVKGRFTISRDNAKNTVYLQMNSLKPEDTAVYYCAAEAYEEYITGWYAYDYWGQGTQVTVSS	high polyreactivity
QVQLVESGGGLVQAGGSLSLSCAASGNTFPYYAMGWYRPAPGKERELVAAIRAGGGSTYYADSVKGRFTISRDNAKNTVYLQMNSLKPEDTAVYYCNADSDYNQYYLAVIHSILDYWGHGTQVTVSS	low polyreactivity
QVQLVESGGGLVQAGGSLSLSCAASGPTFTQNVMGWYRQAPGKERELVAGISSGDITNYADSVKGRFTISRDNAKNTVYLQMNSLKPEDTAVYFCTYYGKSGGYRYTYYYWGQGTQVTVSS	high polyreactivity
QVQLVESGGGLVQAGGSLSLSCAASGRIFAYYAMGWYRQAPGKERELVAAISGGGGSTYYADSVKGRFTISRDNAKNTVYLQMNSLKPEDTAVYYCAARYTVYSATGRYYYWGQGTQVTVSS	high polyreactivity
QVQLVESGGGLVQAGGSLSLSCAASGRIFPTYTMGWYRQAPGKERELVAAINRGGGSTYYADSVKGRFTISRDIAMNTVYLQMYSLKAEDTAVYYCNARTYYRSYGYDYCGQGTQVTVSS	low polyreactivity
QVQLVESGGGLVQAGGSLSLSCAASGRIFRRYAMGWYRQAPGKEREFVAAISYGGGSTYYADSVKGRFTISRDNAKNTVYLQMNSLKPEDTAVYYCNADVPKSLLLYYPWGYGYWGQGTQVTVSS	low polyreactivity
QVQLVESGGGLVQAGGSLSLSCAASGRIFVRNSMGWYRQEPGKETELVADITNGGSTNYADSVKGRFTISRDNAKNTVYLQMNSQKPEDTAVYYCAADTLGVYDGDYWGQGTQVTVSS	low polyreactivity
QVQLVESGGGLVQAGGSLSLSCAASGRIFVRNTMGWYRQAPGKERELVATISRRGGITYYADSVKGRFTISRDNAKNTVYLQMNSLKPEDTAVYYCAAESYSFWLYDYCGQGTQVTVSS	high polyreactivity
QVQLVESGGGLVQAGGSLSLSCAASGRIFYKYAMGWYRQAPGKESELVAAINTSGGRTYYADSVKGRFTISRDNAKNTVYLQMNSLKPEDTAVYYCKAVGSAYTAYDYWGQGTQVTVSS	high polyreactivity
QVQLVESGGGLVQAGGSLSLSCAASGRIFYRNAMGWYRQAPGKERELVAGITRGGSTNYADSVKGRFTISRDNAKNTVYLQMNSLKPEDTAVYYCAKAIPAKFYSEAGYDYWGQGTQVTVSS	low polyreactivity
QVQLVESGGGLVQAGGSLSLSCAASGRIFYRYAMGWYRQAPVKERELVAAISGSVGSTYADSVKGRFTISRDNAKNTVYLQMISLKPEDTAVYYCARETYRRYGAYDYWGQGTQVTVSS	low polyreactivity
QVQLVESGGGLVQAGGSLSLSCAASGRIFYVNTMGWYRQAPGKERELVATISSAASTNYADSVKGRFTISRDNAKNTVYLQMNSLKPEDTAVYYCNASRLSRLSALSGFYSWGQGTQVTVSS	low polyreactivity
QVQLVESGGGLVQAGGSLSLSCAASGRNFAYYAMGWYRQAPGKERELVAGISQRGSRTYYADSVKGRFTISRDNAKNTVYLQMNSLKPEDTAVYYCAARDRRSVTMDYWGQGTQVTVSS	high polyreactivity
QVQLVESGGGLVQAGGSLSLSCAASGRNFTIYAMGWYIQAPGKEREMVAGITRSGGRTYYADSVKGRFTISRDNAKNTVYLQMNSLKPEDTAVYYCNRVFYSGYRGQGHSYESWGQGTQVTVSS	high polyreactivity
QVQLVESGGGLVQAGGSLSLSCAASGRTFGAYAMGWYRQAPGKERELVATITVSGGSTYYADSVKGRFTISRDNAKNTVYLQMNSLKREDTAVYYCAAEWYPYPWGYGYWGQGTQVTVSS	low polyreactivity
QVQLVESGGGLVQAGGSLSLSCAASGRTFSANTMGWSRQAPGKERELVAAISKSGGSTYYADSVKGRFTISRDNAKNTVYLQMNSLKPEDTAVYYCAARTSGYWYSYGSWGQGTQVTVSS	high polyreactivity
QVQLVESGGGLVQAGGSLSLSCAASGRTFWLNSMGWYRQAPGKERELVATISSSSGSTTYADSVKGRFTISRDNAKNTVYLQMNSLKPEDTAVYYCAADWSDDVPGYDYWGQGTQVTVSS	low polyreactivity
QVQLVESGGGLVQAGGSLSLSCAASGRTFYRNAMGWYRQAPGKERELVAAISSDDSTNYADSVKGRFTISRDNAKNTVYLQMNSLKPEDTAVYYCNADYYYGYEYDYWGQGTQVTVSS	low polyreactivity

Sequence	polyreactivity (PSR sort gate)
QVQLVESGGGLVQAGGSLSLSCAASGRTIAYYAMGWDRQAPGKEMEFVAAISSTGTSTYYADSVKGRFTISRDNAKNTVYLQMNSLKPEDTGVYYCNARVATYRLHSKFYYWGQRTQVTVSS	high polyreactivity
QVQLVESGGGLVQAGGSLSLSCAASGRTYYYNAMGWYRQAPGKERELVAAITFSGGTTSYADSEKGRFTISRDNAKNTVYLQMNRLKPEDTEVYYCAARGYWGQGTQVTVSW	high polyreactivity
QVQLVESGGGLVQAGGSLSLSCAASGSIFASNTMGWYRPAPGKERELVAGITKIGSSTYYADSVKGRFTISRDNAKNTVYLQMNSLKPEDTAVYYCNAYGPNIYSSRYDYWGQGTQVTVSS	low polyreactivity
QVQLVESGGGLVQAGGSLSLSCAASGSIFKFNTMGWSRQAPRKERELVAAISRSGGSTYYADSVKGRFTISRDNAKNNVYLQMNSLKPEDTAVYYCAARQFSGPYVRYGYWGQGTQVSVSS	high polyreactivity
QVQLVESGGGLVQAGGSLSLSCAASGSIFPHYAMGWYRQAPGKERELVAAISRSGTSTYYADSVKGRFTISRDNAKNTVYLQMNSLNPEDTAVYYCATGYRRDHDDYWGQGTQVTVSS	high polyreactivity
QVQLVESGGGLVQAGGSLSLSCAASGSIFWYNAMGWYRQAPGKERELVAGITSGGDTNYADSVKGRFTISRDNAKNTFYLQMNSLKPEDTAVYYCNTPSGPGNVGYYRRKWYGYWGQGTQVSVSS	low polyreactivity
QVQLVESGGGLVQAGGSLSLSCAASGSIFYYNAMGWYRQAPGKERELVAAITSSAITNYADSVKGRFTISRDNAKNTVYLQMKSRKPEDTAVYYCAGRITTRPRSTRKRVWVDYWGQGTQVTVSS	high polyreactivity
QVQLVESGGGLVQAGGSLSLSCAASGSTFDYYAMGWYRQAPGKEWELVADITYSGGSTYYADSVKGRFTISRDNAKNTVYLQMNSLKPEDTAVYYCNAYYTVYTRYDYWGQGTQVTVSS	high polyreactivity
QVQLVESGGGLVQAGGSLSLSCAASGSTFNHYAMGWYSPAPGKERELVAAISSRGGSTHYADSVKGRFTISRDNAKNTVYLQMNSLKPEDTAVYDCARDTDPQSSRSSDYDYWGQGTQVTVSS	low polyreactivity
QVQLVESGGGLVQAGGSLSLSCAASGSTFRHYAMGGYRQAPGKERELVAAISSRGGSTHYADSVKGRFTISRDNAKNTVYLQMNSLKPEDTAVYYCARDTDTQSSRSSDYDYWGQGTQVNVSS	low polyreactivity
QVQLVESGGGLVQAGGSLSLSCAASGSTFWVYAMGWYRQAPGKERELVATISRGGSTNYADSVKGRFTISRDNAKNTVYLQMNSLKPEDTAVYYCAAPRFYGYGYEYWGQGTQVTVSS	low polyreactivity
QVQLVESGGGLVQAGGSLSLSCAASGSTFYFNAMGWYRQAPGKERELVATIRSGDSTYYADSVKGRFTISRDNAKNTVYLQMNRLKPEDTAVYYCAAVSTYFSSTFTEYDYWGQGTQVTVST	low polyreactivity
QVQLVESGGGLVQAGGSLSLSCAASGSTFYNYAMGWYRQAPGKERELVASITWNGGSTYYADSVKGRFTISRDNAKNTVYLQMNSLKPEDTAVYYCAADWTWTYPYDYWGQGTQVTVSS	low polyreactivity
QVQLVESGGGLVQAGGSLSLSCAASGSTYLDYTMGWYIQAPGKERELVAVISYRAGSTYYADSVKGRFTISRDNAKNTVYLLMHSLKPEDTAVYYCNADYYNYWRRRRYVWYESWGQGTQVTVSS	low polyreactivity
QVQLVESGGGLVQAGGSLSLSCAASGYIFSSNTMGWYRQAPGKERELVAGITASATITYYADSVKGRFTISRDNAKNTVYLQMNSLKPEDTAVYYCAADPVLGVFKFEYWGQGTQVTVSS	low polyreactivity
QVQLVESGGGLVQAGGSLSLSCAASGYIFVPYAMGWYRQAPGKERELVAAISWSTGTTYYADSVKGRFTISRDNAKNTVYLQMNSLKPEDTAVYYCAAEGYDWIYLYYGLGYWGQGTQVTVSS	low polyreactivity
QVQLVESGGGLVQAGGSLSLSCAASVSTSLSYDMGWYRQAPGKERELVASITSSGGSTYYADSVKGRFTIARDNAKNTVYLQMKSLKPEDTAVYYCNARSYIYPFSPTSYYRYYWGQGTQVTVSS	high polyreactivity
QVQLVESGGGLVQAGGSLSLSCAASVYIFLVYAMGWYRQAPGKERELVAAISSGGSTYYADSVKGRFTISRDNAKNTVYLQMNSLKPEDTAVYYCAKAGLALYAFRDDYWGQGTQVTVSS	low polyreactivity
QVQLVESGGGLVQAGGSLSLSCAATGRIFGPYAMGWYRQAPGKERELVATINSGGSTHYADSVKGRFTISRDNAKNTVYLQMNSLKPEDTAVYYCAATSAYGRYRYYYWGQGTQVTVSS	high polyreactivity
QVQLVESGGGLVQAGGSLSLSCASSANIFGVYAKGWYRQPPGKERELVAAIRYSTVSTYYADSVKGRFTISRDNAKNTVYLQLHSLKPEDTAVFYCAAQRRLYLPGHYYYWGQGTQVTVSS	high polyreactivity
QVQLVESGGGLVQAGGSLSLSCDASGSIFRSNAMGWYRQAPGKERELVAAISRSGGRTYYADSVKGRFTISRDNAKNTVYLQMNSLKPEDTAVYYCAAQVVRSLKYEYWGQGTQVTVSS	high polyreactivity
